Test results: publication PMC6910828

Biological target: Cy3-labelled, prenylated Cdc42, wild type, GDP-bound
Assay: membrane extraction (wash-off) assay on supported lipid bilayers, TIRF; as above, GDI titrated between 0 and 20 µM; Koff of the GTPase from the membrane plotted against GDI concentration and fitted with a hyperbolic function (Kd, Vmax); apparent affinities

fold reduction of the extraction of Cdc42:GDP against WT GDI: < 2 fold
Substance: Xenopus laevis RhoGDI E158/9Q (natural protein)
